As a reminder, the Kd is a measure of binding affinity in units of concentration.

Experimental findings from doi:10.1101/660928 are described below.

The data set deals with Rv1626 D65E (phosphomimic, Rv1626~P) (Mycobacterium tuberculosis). Nature of the data set: EMSA. For orientation: A gel shift assay detects complexes by their altered migration in electrophoresis.

“5' UTR of Mtb Rv1936 (category 1 ANTAR RNA)” displayed a Kd of 15 µM.
